Reference: US20170362323A1 (Kyowa Kirin, published 2017)

T1: CD20 on CD20-positive human lymphoma cell lines Raji and ST-486 (human, UniProt P11836 1-297)
T1 construct: whole, on cells
T1 sequence (looked up): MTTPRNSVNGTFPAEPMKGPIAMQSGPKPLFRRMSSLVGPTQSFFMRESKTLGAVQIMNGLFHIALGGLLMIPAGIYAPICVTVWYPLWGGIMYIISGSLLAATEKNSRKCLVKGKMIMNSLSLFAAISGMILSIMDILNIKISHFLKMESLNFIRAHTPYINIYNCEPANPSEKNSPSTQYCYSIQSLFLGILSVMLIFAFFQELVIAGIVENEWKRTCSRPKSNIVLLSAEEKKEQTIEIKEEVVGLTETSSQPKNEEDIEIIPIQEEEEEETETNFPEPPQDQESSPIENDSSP


molecular target: T1, CD20 on CD20-positive human lymphoma …; experiment: flow cytometry competition on Raji cells, competitor GA101_Alx
Excerpt: CD20-positive human lymphoma cell line Raji (JCRB9012) and HER2-positive human breast cancer cell line SK-BR-3 (ATCC: HTB-30) were used to perform flow cytometry.
Further, hIgG1_Alx was used as a negative control. After washing with FACS buffer, a flow cytometer Cytomics FC 500 MPL (Beckman Coulter) was used for measurement.

| binding result | Binder |
| --- | --- |
| binds | anti-CD20 IgG1 defucosylated antibody GA101/IgG1 DF (antibody, V domains shown) VH: QVQLVQSGAEVKKPGSSVKVSCKASGYAFSYSWMNWVRQAPGQGLEWMGRIFPGDGDTDYNGKFKGRVTITADKSTSTAYMELSSLRSEDTAVYYCARNVFDGYWLVYWGQGTLVTVSS VL: DIVMTQTPLSLPVTPGEPASISCRSSKSLLHSNGITYLYWYLQKPGQSPQLLIYQMSNLVSGVPDRFSGSGSGTDFTLKISRVEAEDVGVYYCAQNLELPYTFGGGTKVEIK |
| binds | anti-CD20 IgG1 type defucosylated monovalent antibody GA101/mvG1-2 DF (antibody, V domains shown, Same chains as GA101/mvG1-2 F, made in CHO/FUT8KO (no core fucose)) VH: QVQLVQSGAEVKKPGSSVKVSCKASGYAFSYSWMNWVRQAPGQGLEWMGRIFPGDGDTDYNGKFKGRVTITADKSTSTAYMELSSLRSEDTAVYYCARNVFDGYWLVYWGQGTLVTVSS VL: DIVMTQTPLSLPVTPGEPASISCRSSKSLLHSNGITYLYWYLQKPGQSPQLLIYQMSNLVSGVPDRFSGSGSGTDFTLKISRVEAEDVGVYYCAQNLELPYTFGGGTKVEIKR |
| binds | anti-CD20 IgG1 type monovalent antibody GA101/mvG1-2 F (antibody, V domains shown, Heterodimer of VH-CH and VL-CL-Fc) VH: QVQLVQSGAEVKKPGSSVKVSCKASGYAFSYSWMNWVRQAPGQGLEWMGRIFPGDGDTDYNGKFKGRVTITADKSTSTAYMELSSLRSEDTAVYYCARNVFDGYWLVYWGQGTLVTVSS VL: DIVMTQTPLSLPVTPGEPASISCRSSKSLLHSNGITYLYWYLQKPGQSPQLLIYQMSNLVSGVPDRFSGSGSGTDFTLKISRVEAEDVGVYYCAQNLELPYTFGGGTKVEIKR |
